Consider 25 molecules from patent US20250263440A1, “CD38-BINDING AGENTS AND USES THEREOF” (PeptiDream Inc., priority 2019, published 2025).

Read-outs that look alike come from different tables or passages of the source. Positions of bridges follow the written chain, without caps; N, C: chain ends. Non-standard residues stand in square brackets, D forms with d. Residues, ends and D or L forms follow the SMILES beside them. No end group written: not given here. *: point of attachment. Bip = N[C@@H](Cc1ccc(-c2ccccc2)cc1)C(=O)O; Nle(6-Ph) = N[C@@H](CCCCc1ccccc1)C(=O)O; Arg(Me2s) = CN=C(NC)NCCC[C@H](N)C(=O)O; Met(O2) = CS(=O)(=O)CC[C@H](N)C(=O)O; NMeF = CN[C@@H](Cc1ccccc1)C(=O)O; hArg = N=C(N)NCCCC[C@H](N)C(=O)O; Ahp(2) = CCCCC[C@H](N)C(=O)O; hSer = N[C@@H](CCO)C(=O)O; X1 = COCCOCCOCCOCCC(=O)*

One experiment has as its target His-tagged CD38 (Homo sapiens, UniProt P28907). Kind of experiment: SPR assay (Biacore S200, Sensor Chip NTA, single-cycle kinetics) of SEQ ID NO.1 variants against His-tagged CD38. Type of experiment: binding. The conditions noted are these: for kon / koff: SPR Biacore S200, NTA chip, His-tagged CD38; for kon: read-out: Ka (association rate constant); for koff: read-out: Kd (dissociation rate constant); for Kd: SPR Biacore S200, His-tagged CD38, calculated from ka and kd. How it is done:
SPR assay was performed using Biacore S200 (Cytiva: Former GE Healthcare).
After the equilibration of Series S Sensor Chip NTA (produced by Cytiva: Former GE Healthcare) with Running Buffer (10 mM HEPES pH7.4, 150 mM NaCl, 0.05% Tween 20), followed by injection of 350 mM EDTA at a flow rate of 10 L/min for 60 seconds and […] NiCl2 at a flow rate of 10 L/min for 60 seconds, then 3 mM EDTA at a flow rate of 10 L/min for 120 seconds, sequently, to wash the sensor chip.
EDC/NHS mixture was injected at a flow rate of […] for 7 minutes to thereby activate the functional groups on sensor chip. His-tagged CD38 in Running Buffer (10 mM HEPES pH7.4, 150 mM NaCl, 0.05% Tween 20) was injected immobilized to at a flow rate of […]. For 7 minutes to immobilize the CD38 on the substrate surfaces of the sensor chip. Then Ethanolamine was injected at a flow rate of […] for 7 minutes.
1.0 M Ethanolamine(aq.) was injected at a flow rate of 10 L/min for 420 seconds for capping. 10 mM peptides (which were synthesised described above) in DMSO were diluted to obtain 10 uM with Running Buffer, and prepared 100 nM, 50 nM, 25 nM, 10 nM, 5 nM of each peptide's solutions (Peptide Samples).
Using these Peptide Samples, kinetics of peptides against His-tagged CD38 was measured. The method adopted for sample measurement was a single-cycle kinetics method. The analysis was conducted using the evaluation software 1.1 provided with Biacore S200. A DMSO correction curve obtained by solvent correction measurements was applied for the analysis. Kinetics fitting was done on the difference data obtained by subtracting the baseline data from sample measurement data.
KD values were calculated based on the association rate constant (ka) and dissociation rate constant (kd).

In experiment [1] the target is T1, Recombinant human CD38 protein (R&D Systems) (human, UniProt P28907 43-300). Kind of experiment: ELISA. (In general: ELISA stands for enzyme-linked immunosorbent assay.)
Experiment [2] addresses T1, Recombinant human CD38 protein (R&D …). Kind of experiment: ELISA. The source holds these as a separate data set.

In the case of `CCCCC[C@@H]1NC(=O)[C@H](Cc2ccc(-c3ccccc3)cc2)NC(=O)[C@H](CC(C)C)NC(=O)[C@H](C(C)C)NC(=O)[C@H](CCC(=O)O)NC(=O)[C@H](CC(=O)O)NC(=O)[C@H](Cc2c[nH]cn2)NC(=O)[C@H](Cc2ccc(O)cc2)NC(=O)[C@H](CCCCNC(=O)CCOCCOCCOCCOC)NC(=O)[C@H](CCCNC(=N)N)NC(=O)[C@H](C)NC(=O)CSC[C@@H](C(N)=O)NC(=O)[C@H](CC(=O)O)NC1=O` [compound 19] ({CH2CO}-ARK(X1)YHDEVL[Bip][Ahp(2)]DC-NH2; thioether N-13), at His-tagged CD38, the kon was 160000 M⁻¹ s⁻¹ and the koff was determined as 0.0012 s⁻¹.
In general, Kd refers to the free concentration of one partner at which half of the binding sites on the other are occupied at equilibrium, for simple one-to-one binding. `CCCCC[C@@H]1NC(=O)[C@H](CCCNC(=NC)NC)NC(=O)[C@H](C)NC(=O)CSC[C@@H](C(N)=O)NC(=O)[C@H](CC(=O)O)NC(=O)[C@H](CCCCc2ccccc2)NC(=O)[C@H](Cc2ccc(-c3ccccc3)cc2)NC(=O)[C@H](CC(C)C)NC(=O)[C@H](C(C)C)NC(=O)[C@H](CCC(=O)O)NC(=O)[C@H](CC(=O)O)NC(=O)[C@H](Cc2c[nH]cn2)NC(=O)[C@H](Cc2ccc(O)cc2)NC1=O` [compound 31] ({CH2CO}-A[Arg(Me2s)][Ahp(2)]YHDEVL[Bip][Nle(6-Ph)]DC-NH2; thioether N-13): on His-tagged CD38, the Kd was 2.6 nM, the kon was 480000 M⁻¹ s⁻¹ and the koff amounted to 0.0012 s⁻¹.
With `CCCCC[C@@H]1NC(=O)[C@H](CCCNC(=N)N)NC(=O)[C@H](C)NC(=O)CSC[C@@H](C(N)=O)NC(=O)[C@H](CC(=O)O)NC(=O)[C@H](CCCCC)NC(=O)[C@H](Cc2ccc(-c3ccccc3)cc2)NC(=O)[C@H](CC(C)C)NC(=O)[C@H](C(C)C)NC(=O)[C@H](CCCCNC(=N)N)NC(=O)[C@H](CC(=O)O)NC(=O)[C@H](Cc2c[nH]cn2)NC(=O)[C@H](Cc2ccc(O)cc2)NC1=O` [compound 12] ({CH2CO}-AR[Ahp(2)]YHD[hArg]VL[Bip][Ahp(2)]DC-NH2; thioether N-13 (inferred); N-terminus and C-terminus assumed), on His-tagged CD38, the kon was found to be 660000 M⁻¹ s⁻¹ and the koff turned out to be 0.0015 s⁻¹.
As for `CCCCC[C@@H]1NC(=O)[C@H](CCCNC(=N)N)NC(=O)[C@H](C)NC(=O)CSC[C@@H](C(N)=O)NC(=O)[C@H](CC(=O)O)NC(=O)[C@H](CCCCC)NC(=O)[C@H](Cc2ccc(-c3ccccc3)cc2)NC(=O)[C@H](CCS(C)(=O)=O)NC(=O)[C@H](C(C)C)NC(=O)[C@H](CCC(=O)O)NC(=O)[C@H](CC(=O)O)NC(=O)[C@H](Cc2c[nH]cn2)NC(=O)[C@H](Cc2ccc(O)cc2)NC1=O` [compound 14] ({CH2CO}-AR[Ahp(2)]YHDEV[Met(O2)][Bip][Ahp(2)]DC-NH2; thioether N-13 (inferred); N-terminus and C-terminus assumed), on His-tagged CD38, the kon is 570000 M⁻¹ s⁻¹ and the koff was determined as 0.022 s⁻¹.
For `CCCCC[C@@H]1NC(=O)[C@H](CCCNC(=N)N)NC(=O)[C@H](C)NC(=O)CSC[C@@H](C(N)=O)NC(=O)[C@H](CC(=O)O)NC(=O)[C@H](CCCCC)NC(=O)[C@H](Cc2ccc(-c3ccccc3)cc2)NC(=O)[C@H](CCO)NC(=O)[C@H](C(C)C)NC(=O)CNC(=O)[C@H](CC(=O)O)NC(=O)[C@H](Cc2c[nH]cn2)NC(=O)[C@H](Cc2ccc(O)cc2)NC1=O` [compound 8] ({CH2CO}-AR[Ahp(2)]YHDGV[hSer][Bip][Ahp(2)]DC-NH2; thioether N-13), on His-tagged CD38, the equilibrium dissociation constant (Kd) is 38.8 nM, the kon stood at 790000 M⁻¹ s⁻¹ and the koff was determined as 0.0306 s⁻¹.
For the molecule `CCCCC[C@@H]1NC(=O)[C@H](CCCNC(=N)N)NC(=O)[C@H](C)NC(=O)CSC[C@@H](C(N)=O)NC(=O)[C@H](CC(=O)O)NC(=O)[C@H](CCCCC)NC(=O)[C@H](Cc2ccc(-c3ccccc3)cc2)NC(=O)[C@H](CC(C)C)NC(=O)[C@H](C(C)C)NC(=O)[C@H](CCCNC(=N)N)NC(=O)[C@H](CC(=O)O)NC(=O)[C@H](Cc2c[nH]cn2)NC(=O)[C@H](Cc2ccc(O)cc2)NC1=O` [compound 11] ({CH2CO}-AR[Ahp(2)]YHDRVL[Bip][Ahp(2)]DC-NH2; thioether N-13), on His-tagged CD38, the kon is 1.6e+06 M⁻¹ s⁻¹ and the koff was determined as 0.0019 s⁻¹.
As for `CCCCC[C@@H]1NC(=O)[C@H](CCCNC(=N)N)NC(=O)[C@H](C)NC(=O)CSC[C@@H](C(N)=O)NC(=O)[C@H](CC(=O)O)NC(=O)[C@H](CCCCC)NC(=O)[C@H](Cc2ccc(-c3ccccc3)cc2)NC(=O)[C@H](CC(C)C)NC(=O)[C@H](C(C)C)NC(=O)[C@H](CC(N)=O)NC(=O)[C@H](CC(=O)O)NC(=O)[C@H](Cc2c[nH]cn2)NC(=O)[C@H](Cc2ccc(O)cc2)NC1=O` [compound 5] ({CH2CO}-AR[Ahp(2)]YHDNVL[Bip][Ahp(2)]DC-NH2; thioether N-13), at His-tagged CD38, the kon came to 766000 M⁻¹ s⁻¹ and the koff was determined as 0.00161 s⁻¹.

B1: I-1 analogue with Ala at position 2 (A A Ahp Y H D G V L Bph Ahp D C) (peptide)
peptide: {CH2CO}-AA[Ahp(2)]YHDGVL[Bip][Ahp(2)]DC
modifications: thioether N-13
For B1, the “Binding Assay (larger values indicate stronger binding)” value (from here on “Binding Assay”) in experiment [1] turned out to be 0.6.

B2: I-1 analogue with Ala at position 4 (A R Ahp A H D G V L Bph Ahp D C) (peptide)
peptide: {CH2CO}-AR[Ahp(2)]AHDGVL[Bip][Ahp(2)]DC
modifications: thioether N-13
As to B2, in experiment [1], the “Binding Assay” value is 0.11.

B3: I-1 analogue with Ala at position 9 (A R Ahp Y H D G V A Bph Ahp D C) (peptide)
peptide: {CH2CO}-AR[Ahp(2)]YHDGVA[Bip][Ahp(2)]DC
modifications: thioether N-13
Regarding B3, the “Binding Assay” value in experiment [1] was determined as 0.08.

B4: I-1 analogue with Ala at position 12 (A R Ahp Y H D G V L Bph Ahp A C) (peptide)
peptide: {CH2CO}-AR[Ahp(2)]YHDGVL[Bip][Ahp(2)]AC
modifications: thioether N-13
Consider B4, for which, in experiment [1], the “Binding Assay” value came out at 1.79.

B5: I-1 analogue with Ala at position 6 (A R Ahp Y H A G V L Bph Ahp D C) (peptide)
peptide: {CH2CO}-AR[Ahp(2)]YHAGVL[Bip][Ahp(2)]DC
modifications: thioether N-13
As to B5, the “Binding Assay” value in experiment [1] is 0.93.

B6: I-1 analogue with Ala at position 8 (A R Ahp Y H D G A L Bph Ahp D C) (peptide)
peptide: {CH2CO}-AR[Ahp(2)]YHDGAL[Bip][Ahp(2)]DC
modifications: thioether N-13
For the molecule B6, in experiment [1], the “Binding Assay” value came out at 0.3.

B7: I-1 analogue with Ala at position 5 (A R Ahp Y A D G V L Bpb Ahp D C) (peptide)
peptide: {CH2CO}-AR[Ahp(2)]YADGVL[Bip][Ahp(2)]DC
modifications: thioether N-13
B7: the “Binding Assay” value in experiment [1] was found to be 0.28.

B8: I-1 analogue with Ala at position 7 (A R Ahp Y H D A V L Bpb Ahp D C) (peptide)
peptide: {CH2CO}-AR[Ahp(2)]YHDAVL[Bip][Ahp(2)]DC
modifications: thioether N-13
Regarding B8, the “Binding Assay” value in experiment [1] was 1.49.

B9: I-2 analogue with Ala at position 3 (A L A MeF V L P Bph V W V C) (peptide)
peptide: {CH2CO}-ALA[NMeF]VLP[Bip]VWVC
modifications: thioether N-12
On to B9, for which the “Binding Assay” value in experiment [2] is 0.37.

B10: I-2 analogue with Ala at position 4 (A L H A V L P Bph V W V C) (peptide)
peptide: {CH2CO}-ALHAVLP[Bip]VWVC
modifications: thioether N-12
With B10, in experiment [2], the “Binding Assay” value was found to be 0.1.

B11: I-2 analogue with Ala at position 8 (A L H MeF V L P A V W V C) (peptide)
peptide: {CH2CO}-ALH[NMeF]VLPAVWVC
modifications: thioether N-12; also: structure as I-2
Regarding B11, the “Binding Assay” value in experiment [2] is 0.09.

B12: I-1 analogue with Ala at position 3 (A R A Y H D G V L Bph Ahp D C) (peptide)
peptide: {CH2CO}-ARAYHDGVL[Bip][Ahp(2)]DC
modifications: thioether N-13
On to B12, for which the “Binding Assay” value in experiment [1] worked out at 0.11.

B13: I-1 analogue with Ala at position 11 (A R Ahp Y H D G V L Bph A D C) (peptide)
peptide: {CH2CO}-AR[Ahp(2)]YHDGVL[Bip]ADC
modifications: thioether N-13
Turning to B13, the “Binding Assay” value in experiment [1] turned out to be 0.2.

B14: I-2 analogue with Ala at position 6 (A L H MeF V A P Bph V W V C) (peptide)
peptide: {CH2CO}-ALH[NMeF]VAP[Bip]VWVC
modifications: thioether N-12
Regarding B14, in experiment [2], the “Binding Assay” value turned out to be 0.09.

B15: I-1 analogue with Ala at position 10 (A R Ahp Y H D G V L A Ahp D C) (peptide)
peptide: {CH2CO}-AR[Ahp(2)]YHDGVLA[Ahp(2)]DC
modifications: thioether N-13
In the case of B15, the “Binding Assay” value in experiment [1] was found to be 0.09.

B16: I-2 analogue with Ala at position 2 (A A H MeF V L P Bph V W V C) (peptide)
peptide: {CH2CO}-AAH[NMeF]VLP[Bip]VWVC
modifications: thioether N-12
Take B16: the “Binding Assay” value in experiment [2] is 0.84.

B17: I-2 analogue with Ala at position 5 (A L H MeF A L P Bph V W V C) (peptide)
peptide: {CH2CO}-ALH[NMeF]ALP[Bip]VWVC
modifications: thioether N-12
As for B17, in experiment [2], the “Binding Assay” value was found to be 0.47.

B18: I-2 analogue with Ala at position 7 (A L H MeF V L A Bph V W V C) (peptide)
peptide: {CH2CO}-ALH[NMeF]VLA[Bip]VWVC
modifications: thioether N-12
For the molecule B18, in experiment [2], the “Binding Assay” value turned out to be 0.11.
